The values that follow come from US20180002754A1.

Assay [1] deals with Frizzled-2 (human Fzd2) (human) (UniProt Q14332). The experiment in a line: SPR (Biacore) binding analysis, text to Table 1 and FIG. 10. On the technique in general: In SPR one partner is held on a chip, and binding of the other changes the refractive index at the surface.
Assay [2] has the same target. Nature of the assay: SPR (Biacore, by Precision Antibody); antibody as ligand, Frizzled-2 as analyte at 0-500 nM.
For assay [3] the target is unchanged. The experiment in a line: SPR (BioCore study performed by Precision Antibody), legend of FIG. 10.

By Kd is commonly meant the constant that tells how readily two partners part at equilibrium. Lower therefore signals higher affinity. What is called koff is the rate constant with which the complex falls apart. One may read the kon as the second-order rate constant of association.

Chain of UniProt Q14332 (Q14332 24-247 limits assumed): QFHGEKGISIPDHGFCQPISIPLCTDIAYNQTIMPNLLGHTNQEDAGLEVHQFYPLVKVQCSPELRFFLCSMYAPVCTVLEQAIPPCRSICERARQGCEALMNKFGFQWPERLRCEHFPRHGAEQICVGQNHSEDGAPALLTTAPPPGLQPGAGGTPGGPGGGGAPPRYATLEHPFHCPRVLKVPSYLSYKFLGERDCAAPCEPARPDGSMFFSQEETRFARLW

“anti-Fzd2 antibody (R & D Systems; MAB1307)” returned a Kd in assay [1] of under 0.02 µM. In assay [2], this substance came in with a Ka of 5.2e+07 M⁻¹, a Kd of 0.019 µM, a koff of 0.00074 s⁻¹ and an association rate constant (kon) of 39000 M⁻¹ s⁻¹. In addition, in assay [3], the dissociation constant Kd was 0.02 µM.
